According to US20190382504A1 (EUREKA THERAPEUTICS, published 2019):

Key:
Assay in all cases: FACS, phage on T2 cells, 50 ug/ml peptide;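 further: binding of phage clones to peptide/MHC complexes detected by flow cytometry after staining with an anti-M13 antibody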
[1] = target: T1, ESO157 homolog 2 peptide (…)/HLA-A*02:01 on T2 cells (human)
T1 construct: also called ESO157 H2

[2] = target: T2, ESO157 homolog 4 peptide (…)/HLA-A*02:01 on T2 cells (human)
T2 construct: also called ESO157 H4

[3] = target: T3, ESO157 homolog 5 peptide (…)/HLA-A*02:01 on T2 cells (human)
T3 construct: also called ESO157 H5

[4] = target: T4, ESO157 homolog 3 peptide (…)/HLA-A*02:01 on T2 cells (human)
T4 construct: also called ESO157 H3

[5] = target: T5, ESO157 homolog 1 peptide (…)/HLA-A*02:01 on T2 cells (human)
T5 construct: also called ESO157 H1

Binder	MFI [1]	MFI [2]	MFI [3]	MFI [4]	MFI [5]
phage clone 35-2, affinity maturation variant of clone #35 (scFv, V domains shown) VH: QVQLVQSGAEVKKPGSSVKVSCKASGDTFSSYYISWVRQAPGQGLEWMGRIIPILGIANYAQKYQGRVTLSADKSTSTSYMELNSLRSEDTAVYYCARDWSYSIDYWGQGTLVTVSS VL: QSVVTQPPSVSAAPGQKVTISCSGSSSNIGNNYVSWYQQLPGTAPKLLIYDNNERPSGIPDRFSGSKSGTSATLGITGLQTGDEADYYCGTWDSSLSAWVFGGGTKLTVLG	20.8	21	18.8	–	–
phage clone 35-20, affinity maturation variant of clone #35 (scFv, V domains shown) VH: QVHLVQSGAEVKKPGSSVKVSCKASGDTFSSYYISWVRQAPGQGLEWMGRIIPILGIANYAQKYQGRVTLSADKSTSTSYMELNSLRSEDTAVYYCARDWSYSIDYWGQGTLVTVSS VL: QSVVTQPPSVSAAPGQKVTISCSGSSSNIGNNYVSWYQQLPGTAPKLLIYDNNKRPSGIPDRFSGSKSGTSATLGITGLQTGDEADYYCGTWDSSLSAWVFGGGTKLTVL	–	20.6	19	20.8	21
phage clone 35-16, affinity maturation variant of clone #35 (scFv, V domains shown) VH: QVQLVQSGAEVKKPGSSVKVSCKASEDTFSSYYISWVRQAPGQGLEWMGRIIPTLGIANYAQKYQGRVTLSADKSTSTSYMELNSLRSEDTAVYYCARDWSYSIDYWGQGTLVTVSS VL: QSVVTQPPSVSAAPGQKVTISCSGSSSNIGNNYVSWYQQLPGTAPKLLIYDNNKRPSGIPGRFSGSKSGTSATLGITGLQTGDEADYYCGTWDSSLSAWVFGGGTKLTVLG	–	19.3	18.7	18.7	–
phage clone 35-8, affinity maturation variant of clone #35 (scFv, V domains shown) VH: QVPLVQSGAEVKKPGSSVKVSCKASGDTFSSYYISWVRQAPGQGLEWMGRIIPILGIANYAQKYQGRVTLSADKSTSTSYMELNNLRSEDTAVYYCARDWSYSIDYWGQGTLVTVSS VL: QSVVTQPPSVSAAPGQKVTISCSGSSSNIGNNYVSWYQQLPGTAPKLLIYDNNKRPSGIPDRFSGSKSGTSATLGITGLQTGDEADYYCGTWDSSLSAWVFGGGTKLTVL	18.7	19.6	17.8	–	–
phage clone 35-3, affinity maturation variant of clone #35 (scFv, V domains shown) VH: QVQLVQSGAEVKKPGSSVKVSCKASGDTFSSYYISWVRQAPGQGLEWMGRIIPILGIANYAQKYQGRVTLSADKSTSTSYMELNSLRSEDTAVYYCAREWSYSIDYWGQGTLVTVSS VL: QSVVTQPPSVSAAPGQKVTISCSGSSSNIGNNYVSWYQQLPGTAPKLLIYDNNKRPSGIPDRFSGSKSGTSATLGITGLRTGDEADYYCGTWDSSLSAWVFGGGTKLTVLG	18.4	19	18.5	18.9	18.8
phage clone 35-15, affinity maturation variant of clone #35 (scFv, V domains shown) VH: QVQLVQSGAEVKKPGSSVKVSCKASGDTFSSYYISWVRQAPGQGLEWMGRIIPILGIANYAQKYQGRVTLSADKSTSTSYMELNSLSSEDTAVYYCALDWSYSIDYWGQGTLVTVSS VL: QSVVTQPPSVSAAPGQKVTISCSGSSSNIGNNYVSWYQQLPGTAPKLLIYDNNKRPSGIPDRFSASKSGTSATLGITGLQTRDEADYYCGTWDSSLSAWVFGGGTKLTVLG	–	33.8	31.8	35.4	36.2
phage clone 35-12, affinity maturation variant of clone #35 (scFv, V domains shown) VH: QVPLVQSGAEVKKPGSSVRVSCKASGDTFSNYSISWVRQAPGQGLEWMGRIIPILGIANYAQKYQGRVTLSADKSTSTSYMELNSLRSEDTAVYYCARDWSYSIDYWGQGTLVTVSS VL: QSVVTQPPSVSAAPGQKVTISCSGSSSNIGNNYVSWYQQLPGTAPKLLIYDNNKRPSGIPDRFSGSKSGTSTTLGITGLQTGDEADYYCGTWDSSLSAWVFGGGTKLTVLG	19.2	18.7	17.7	18.6	19.3
